Results taken from US20060002925A1 (ZymoGenetics, published 2006).

Assays:
[1] = molecular target: T1, human ZcytoR14 (human, UniProt Q8NAC3 21-791); experiment: cell-based or functional assay
T1 sequence: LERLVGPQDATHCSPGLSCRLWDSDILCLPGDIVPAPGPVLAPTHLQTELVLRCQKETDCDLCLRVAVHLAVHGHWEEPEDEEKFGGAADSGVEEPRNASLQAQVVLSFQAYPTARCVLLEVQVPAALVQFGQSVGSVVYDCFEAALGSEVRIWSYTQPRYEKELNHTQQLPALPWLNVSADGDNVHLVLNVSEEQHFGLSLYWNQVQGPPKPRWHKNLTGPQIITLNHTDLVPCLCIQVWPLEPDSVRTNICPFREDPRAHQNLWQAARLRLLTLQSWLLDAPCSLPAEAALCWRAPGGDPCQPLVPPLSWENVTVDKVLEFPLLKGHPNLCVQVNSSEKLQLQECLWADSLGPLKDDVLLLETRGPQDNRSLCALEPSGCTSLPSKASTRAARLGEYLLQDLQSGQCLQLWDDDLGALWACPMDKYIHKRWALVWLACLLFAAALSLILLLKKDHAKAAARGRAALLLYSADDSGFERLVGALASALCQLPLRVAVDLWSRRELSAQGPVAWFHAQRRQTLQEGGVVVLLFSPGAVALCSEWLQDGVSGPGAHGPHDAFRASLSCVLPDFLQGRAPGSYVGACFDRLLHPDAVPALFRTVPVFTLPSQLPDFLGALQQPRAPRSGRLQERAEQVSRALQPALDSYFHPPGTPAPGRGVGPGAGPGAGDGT

[2] = molecular target: T2, human IL-17 receptor (human, UniProt Q96F46 33-320); experiment: cell-based or functional assay
T2 sequence: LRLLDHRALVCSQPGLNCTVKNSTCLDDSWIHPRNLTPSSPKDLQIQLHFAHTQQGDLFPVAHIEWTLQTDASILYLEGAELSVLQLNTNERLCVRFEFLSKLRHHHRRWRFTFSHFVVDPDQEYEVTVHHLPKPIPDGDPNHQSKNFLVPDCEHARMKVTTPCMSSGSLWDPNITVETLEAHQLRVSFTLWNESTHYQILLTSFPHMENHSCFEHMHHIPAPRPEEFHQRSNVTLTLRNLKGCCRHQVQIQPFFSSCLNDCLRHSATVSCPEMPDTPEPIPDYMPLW

B1: human IL-17F (ligand)
chain: RKIPKVGHTFFQKPESCPPVPGGSMKLDIGIINENQRVSMSRNIESRSTSPWNYTVTWDPNRYPSEVVQAQCRNLGCINAQGKEDISMNSVPIQQETLVVRRKHQGCSVSFQLEKVLVTVGCTCVTPVIHHVQ
modifications: biotinylated (Example 10) or 125I-radiolabeled by the iodobead method (Example 11) when used as tracer; unlabeled as cold competitor
- EC50 of ap1/nfkb luciferase activation in the hIL-17RCX1 recombinant line [1]: 0.61 ng/mL
- fold more potent EC50 in the recombinant line against the parental line [1]: 17 fold
- EC50 of ap1/nfkb luciferase activation in nih3t3/kz142.8/IL-17R cells [2]: 12.4 ng/mL
